Measured values reported in paper PMC4231766.

System: 340R WT (MBP fusion) (Invertebrate iridescent virus 6 (IIV-6))
Assay: EMSA
Conditions: EMSA 1 h at room temperature, 5 ng long dsRNA or 1 nM siRNA/19-nt dsRNA; 6% or 12% native PAGE; binding buffer not given (as ref 11); protein dialysis/storage …

How did the Kd turn out when 19-nt blunt dsRNA was run?
The Kd was 1170 nM.

21-nt siRNA duplex was tested. Which Kd did it give?
The Kd was 718 nM.

How did the Kd turn out when 126-nt long dsRNA was run?
The Kd was 139 nM.
